Target: T1, shGARP-TGFβ (human)
T1 construct: also called immobilized shGARP-TGFβ
Assay: BIACOR analysis (SPR), immobilized shGARP-TGFβ

T1 sequence (Q14392 20-627): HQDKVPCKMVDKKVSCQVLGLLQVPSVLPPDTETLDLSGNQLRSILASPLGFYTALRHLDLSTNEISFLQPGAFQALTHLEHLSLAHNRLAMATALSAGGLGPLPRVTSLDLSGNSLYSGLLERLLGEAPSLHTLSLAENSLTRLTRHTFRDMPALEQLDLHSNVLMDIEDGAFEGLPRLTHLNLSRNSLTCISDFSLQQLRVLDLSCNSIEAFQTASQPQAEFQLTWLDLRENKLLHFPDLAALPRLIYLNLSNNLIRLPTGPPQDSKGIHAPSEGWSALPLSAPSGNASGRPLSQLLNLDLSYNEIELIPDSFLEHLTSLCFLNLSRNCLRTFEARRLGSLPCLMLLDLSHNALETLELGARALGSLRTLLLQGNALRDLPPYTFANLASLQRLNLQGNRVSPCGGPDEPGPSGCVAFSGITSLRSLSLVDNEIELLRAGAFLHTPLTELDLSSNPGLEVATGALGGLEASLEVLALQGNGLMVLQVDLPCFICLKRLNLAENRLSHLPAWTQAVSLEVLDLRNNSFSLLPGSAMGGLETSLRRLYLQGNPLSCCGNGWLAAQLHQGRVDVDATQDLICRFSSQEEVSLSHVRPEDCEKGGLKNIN

Kd: 0.2 nM
B1: MHGARP8 (antibody, V domains shown)
VH: QVQLKESGPGLVAPSQSLSITCTVSGFSLTGYGINWVRQPPGKGLEWLGMIWSDGSTDYNSVLTSRLRISKDNSNSQVFLKMNSLQVDDTARYYCARDRNYYDYDGAMDYWGQGTSVTVSS
VL: DIQVTQSSSYLSVSLGDRVTITCKASDHIKNWLAWYQQKPGIAPRLLVSGATSLEAGVPSRFSGSGSGKNFTLSITSLQTEDVATYYCQQYWSTPWTFGGGTTLEIR
notes: Mouse monoclonal from hybridoma MHGARP8 (LMBP 10246CB); used biotinylated in flow cytometry; also called MGARPB; antibody of hybridoma LMBP 10246CB

Source: patent EP2832747A1 (Université Catholique de Louvain, dated 2015)
